Measured values taken from PMC8102632.
Blank lines part the entries; values can stand above or below the substance they belong to.

Experiments:
[1] = molecular target: Thiomicrospira Cas2 (Thiomicrospira); experiment: cryo-EM structure; 50 uM Cas6-RT-Cas1, 50 uM Cas2 and 12.5 uM half-site DNA substrate dialysed into 10 mM HEPES pH 7.5, 5 mM EDTA, 500 mM KCl, 0.5 mM TCEP, 0.5% glycerol; purified over Superose 6 Increase; single particle cryo-EM; no density seen for the DNA
[2] = molecular target: Thiomicrospira Cas6-RT-Cas1 RT-K574A mutant (Thiomicrospira)
[3] = molecular target: Thiomicrospira Cas6-RT-Cas1 fusion protein (Thiomicrospira); experiment: cryo-EM structure; 50 uM Cas6-RT-Cas1, 50 uM Cas2 and 12.5 uM half-site DNA substrate dialysed into 10 mM HEPES pH 7.5, 5 mM EDTA, 500 mM KCl, 0.5 mM TCEP, 0.5% glycerol; purified over Superose 6 Increase; single particle cryo-EM; no density seen for the DNA

stoichiometry N [1]: 2
Substance: Thiomicrospira Cas2 (natural protein)

ligation of ssRNA protospacer into pCRISPR by the mutant Cas6-RT-Cas1—Cas2 complex relative to WT (RT-helix of one protomer with Cas1a of another) [2]: > 80 % reduction
Substance: Thiomicrospira Cas6-RT-Cas1 RT-K574A mutant (enzyme)

stoichiometry N [3]: 2
Substance: Thiomicrospira Cas6-RT-Cas1 fusion protein (enzyme)
